Source: PMC4876015 (Structure (London, England : 1993), 2016)

What was measured:
[1] = target: the molecule itself; assay: SDS-PAGE of the folded channel
[2] = target: the molecule itself; assay: crystal structure

B1: KcsA V76ester channel (semisynthetic, full length) (natural protein, UniProt P0A334 1-160, looked up)
chain: MPPMLSGLLARLVKLLLGRHGSALHWRAAGAATVLLVIVLLAGSYLAVLAERGAPGAQLITYPRALWWACETATTVGYGDLCPVTLWGRLVAVVVMVAGITSFGLVTAALATWFVGREQERRGHFVRHSEKAAEEAYTRTTRALHERFDRLERMLDDNRR
modifications: peptide bond between residues 75 and 76 (Thr75-Val76, the 4' amide bond) replaced with an ester linkage
Question: With B1 as the protein, how does the “stoichiometry N” value [1] read?
Answer: 4

B2: KcsA V76ester channel, truncated for crystallization (domain or fragment, UniProt P0A334 1-125, looked up)
chain: MPPMLSGLLARLVKLLLGRHGSALHWRAAGAATVLLVIVLLAGSYLAVLAERGAPGAQLITYPRALWWACETATTVGYGDLCPVTLWGRLVAVVVMVAGITSFGLVTAALATWFVGREQERRGHF
modifications: peptide bond between residues 75 and 76 (Thr75-Val76, the 4' amide bond) replaced with an ester linkage
Question: Does B2 bind [2]?
Answer: binds
